B1: HNRNPA2B1 (protein, UniProt P22626 1-353, looked up)
Heterogeneous nuclear …: MEKTLETVPLERKKREKEQFRKLFIGGLSFETTEESLRNYYEQWGKLTDCVVMRDPASKRSRGFGFVTFSSMAEVDAAMAARPHSIDGRVVEPKRAVAREESGKPGAHVTVKKLFVGGIKEDTEEHHLRDYFEEYGKIDTIEIITDRQSGKKRGFGFVTFDDHDPVDKIVLQKYHTINGHNAEVRKALSRQEMQEVQSSRSGRGGNFGFGDSRGGGGNFGPGPGSNFRGGSDGYGSGRGFGDGYNGYGGGPGGGNFGGSPGYGGGRGGYGGGGPGYGNQGGGYGGGYDNYGGGNYGSGNYNDFGNYNQQPSNYGPMKSGNFGGSRNMGGPYGGGNYGPGGSGGSGGYGGRSRY
B2: PRPF4 (protein, UniProt O43172 1-522, looked up)
U4/U6 small nuclear …: MASSRASSTQATKTKAPDDLVAPVVKKPHIYYGSLEEKERERLAKGESGILGKDGLKAGIEAGNINITSGEVFEIEEHISERQAEVLAEFERRKRARQINVSTDDSEVKACLRALGEPITLFGEGPAERRERLRNILSVVGTDALKKTKKDDEKSKKSKEEYQQTWYHEGPNSLKVARLWIANYSLPRAMKRLEEARLHKEIPETTRTSQMQELHKSLRSLNNFCSQIGDDRPISYCHFSPNSKMLATACWSGLCKLWSVPDCNLLHTLRGHNTNVGAIVFHPKSTVSLDPKDVNLASCAADGSVKLWSLDSDEPVADIEGHTVRVARVMWHPSGRFLGTTCYDRSWRLWDLEAQEEILHQEGHSMGVYDIAFHQDGSLAGTGGLDAFGRVWDLRTGRCIMFLEGHLKEIYGINFSPNGYHIATGSGDNTCKVWDLRQRRCVYTIPAHQNLVTGVKFEPIHGNFLLTGAYDNTAKIWTHPGWSPLKTLAGHEGKVMGLDISSDGQLIATCSYDRTFKLWMAE
B3: HNRNPA3 (protein, UniProt P51991 1-378, looked up)
Heterogeneous nuclear …: MEVKPPPGRPQPDSGRRRRRRGEEGHDPKEPEQLRKLFIGGLSFETTDDSLREHFEKWGTLTDCVVMRDPQTKRSRGFGFVTYSCVEEVDAAMCARPHKVDGRVVEPKRAVSREDSVKPGAHLTVKKIFVGGIKEDTEEYNLRDYFEKYGKIETIEVMEDRQSGKKRGFAFVTFDDHDTVDKIVVQKYHTINGHNCEVKKALSKQEMQSAGSQRGRGGGSGNFMGRGGNFGGGGGNFGRGGNFGGRGGYGGGGGGSRGSYGGGDGGYNGFGGDGGNYGGGPGYSSRGGYGGGGPGYGNQGGGYGGGGGYDGYNEGGNFGGGNYGGGGNYNDFGNYSGQQQSNYGPMKGGSFGGRSSGSPYGGGYGSGGGSGGYGSRRF
B4: SNX9 (protein, UniProt Q9Y5X1 1-595, looked up)
Sorting nexin-9: MATKARVMYDFAAEPGNNELTVNEGEIITITNPDVGGGWLEGRNIKGERGLVPTDYVEILPSDGKDQFSCGNSVADQAFLDSLSASTAQASSSAASNNHQVGSGNDPWSAWSASKSGNWESSEGWGAQPEGAGAQRNTNTPNNWDTAFGHPQAYQGPATGDDDDWDEDWDGPKSSSYFKDSESADAGGAQRGNSRASSSSMKIPLNKFPGFAKPGTEQYLLAKQLAKPKEKIPIIVGDYGPMWVYPTSTFDCVVADPRKGSKMYGLKSYIEYQLTPTNTNRSVNHRYKHFDWLYERLLVKFGSAIPIPSLPDKQVTGRFEEEFIKMRMERLQAWMTRMCRHPVISESEVFQQFLNFRDEKEWKTGKRKAERDELAGVMIFSTMEPEAPDLDLVEIEQKCEAVGKFTKAMDDGVKELLTVGQEHWKRCTGPLPKEYQKIGKALQSLATVFSSSGYQGETDLNDAITEAGKTYEEIASLVAEQPKKDLHFLMECNHEYKGFLGCFPDIIGTHKGAIEKVKESDKLVATSKITLQDKQNMVKRVSIMSYALQAEMNHFHSNRIYDYNSVIRLYLEQQVQFYETIAEKLRQALSRFPVM
B5: HNRNPD (protein, UniProt Q14103 2-355, looked up)
Heterogeneous nuclear …: SEEQFGGDGAAAAATAAVGGSAGEQEGAMVAATQGAAAAAGSGAGTGGGTASGGTEGGSAESEGAKIDASKNEEDEGHSNSSPRHSEAATAQREEWKMFIGGLSWDTTKKDLKDYFSKFGEVVDCTLKLDPITGRSRGFGFVLFKESESVDKVMDQKEHKLNGKVIDPKRAKAMKTKEPVKKIFVGGLSPDTPEEKIREYFGGFGEVESIELPMDNKTNKRRGFCFITFKEEEPVKKIMEKKYHNVGLSKCEIKVAMSKEQYQQQQQWGSRGGFAGRARGRGGGPSQNWNQGYSNYWNQGYGNYGYNSQGYGGYGGYDYTGYNNYYGYGDYSNQQSGYGKVSRRGGHQNSYKPY
B6: C20orf43 (protein, UniProt Q9BY42 1-306, looked up)
Replication termination …: MGCDGGTIPKRHELVKGPKKVEKVDKDAELVAQWNYCTLSQEILRRPIVACELGRLYNKDAVIEFLLDKSAEKALGKAASHIKSIKNVTELKLSDNPAWEGDKGNTKGDKHDDLQRARFICPVVGLEMNGRHRFCFLRCCGCVFSERALKEIKAEVCHTCGAAFQEDDVIMLNGTKEDVDVLKTRMEERRLRAKLEKKTKKPKAAESVSKPDVSEEAPGPSKVKTGKPEEASLDSREKKTNLAPKSTAMNESSSGKAGKPPCGATKRSIADSEESEAYKSLFTTHSSAKRSKEESAHWVTHTSYCF

Tests used:
3×MBT domain of L3MBTL1 = test: Triple SILAC pull-down, 3xMBT/3xMBTD355N ratio (cytoplasmic, nuclear and chromatin fractions of 293T cells); type: binding, human; conditions: SILAC ratio, pull-down 3xMBT vs 3xMBTD355N; for 3xMBT/D355N UNC Heavy: experiment with UNC0638 in heavy SILAC media; for 3xMBT/D355N UNC Light: experiment with UNC0638 in light SILAC media;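 on all read-outs here: proteins quantified with MaxQuant, requiring at least two unique peptides and quantification in both label directions, normalized to the mean of proteins from a digested loading control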
G9a and GLP = biological target: T1, G9a and GLP (Homo sapiens, UniProt Q96KQ7+Q9H9B1); test: Triple SILAC pull-down after UNC0638 treatment of 293T cells, DMSO/UNC0638 ratio of protein captured by 3×MBT; type: cell-based; parameters: cells were treated for 24 hours with UNC0638 at 2.5 μM or DMSO vehicle control; endogenous in cells; host or cells: HEK 293T; conditions: for Relative to UNC0638 UNC Heavy / Relative to UNC0638 UNC Light: SILAC ratio DMSO/UNC0638 of protein pulled down with 3xMBT; for Relative to UNC0638 UNC Heavy: UNC0638 in heavy SILAC media; for Relative to UNC0638 UNC Light: UNC0638 in light SILAC media; for Relative to UNC0638 Average: average of UNC Light and UNC Heavy experiments;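 on all read-outs here: mass spectrometry (Q-Exactive) SILAC quantitation, DMSO/UNC0638 ratio computed after subtracting 3×MBTD355N mutant pull-down background, only proteins with at least twofold 3×MBT over mutant signal considered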
T1 sequence (Q96KQ7 2-1210 limits assumed): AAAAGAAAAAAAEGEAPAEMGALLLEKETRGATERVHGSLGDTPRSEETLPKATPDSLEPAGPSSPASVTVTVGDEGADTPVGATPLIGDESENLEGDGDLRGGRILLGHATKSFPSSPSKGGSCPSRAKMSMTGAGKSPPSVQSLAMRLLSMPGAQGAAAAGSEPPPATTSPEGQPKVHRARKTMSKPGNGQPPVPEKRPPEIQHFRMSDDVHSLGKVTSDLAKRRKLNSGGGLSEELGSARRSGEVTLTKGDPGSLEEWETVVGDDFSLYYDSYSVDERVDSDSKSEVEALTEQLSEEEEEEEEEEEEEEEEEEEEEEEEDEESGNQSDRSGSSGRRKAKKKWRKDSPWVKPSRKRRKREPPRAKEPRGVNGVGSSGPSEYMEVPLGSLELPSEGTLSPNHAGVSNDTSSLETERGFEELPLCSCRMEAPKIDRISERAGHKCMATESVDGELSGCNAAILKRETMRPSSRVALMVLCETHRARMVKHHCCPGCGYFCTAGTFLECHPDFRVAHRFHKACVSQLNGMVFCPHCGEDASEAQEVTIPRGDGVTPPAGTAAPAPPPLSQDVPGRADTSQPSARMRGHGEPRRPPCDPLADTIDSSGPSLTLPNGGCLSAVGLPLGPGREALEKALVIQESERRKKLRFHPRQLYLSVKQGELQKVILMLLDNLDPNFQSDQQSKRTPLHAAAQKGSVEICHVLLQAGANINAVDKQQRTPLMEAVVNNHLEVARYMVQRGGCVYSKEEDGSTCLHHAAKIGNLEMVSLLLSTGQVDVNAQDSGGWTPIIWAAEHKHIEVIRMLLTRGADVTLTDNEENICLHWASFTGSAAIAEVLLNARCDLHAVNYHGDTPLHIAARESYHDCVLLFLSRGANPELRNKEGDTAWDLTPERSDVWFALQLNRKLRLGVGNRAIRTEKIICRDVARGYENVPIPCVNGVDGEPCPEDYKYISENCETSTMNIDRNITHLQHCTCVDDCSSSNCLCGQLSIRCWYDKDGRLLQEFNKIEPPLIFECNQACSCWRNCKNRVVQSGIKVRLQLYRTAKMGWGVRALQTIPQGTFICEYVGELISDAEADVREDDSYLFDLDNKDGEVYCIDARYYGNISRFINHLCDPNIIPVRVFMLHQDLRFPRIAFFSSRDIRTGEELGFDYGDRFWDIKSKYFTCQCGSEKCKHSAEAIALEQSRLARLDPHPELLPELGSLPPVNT
T1 sequence (Q9H9B1 2-1298 limits assumed): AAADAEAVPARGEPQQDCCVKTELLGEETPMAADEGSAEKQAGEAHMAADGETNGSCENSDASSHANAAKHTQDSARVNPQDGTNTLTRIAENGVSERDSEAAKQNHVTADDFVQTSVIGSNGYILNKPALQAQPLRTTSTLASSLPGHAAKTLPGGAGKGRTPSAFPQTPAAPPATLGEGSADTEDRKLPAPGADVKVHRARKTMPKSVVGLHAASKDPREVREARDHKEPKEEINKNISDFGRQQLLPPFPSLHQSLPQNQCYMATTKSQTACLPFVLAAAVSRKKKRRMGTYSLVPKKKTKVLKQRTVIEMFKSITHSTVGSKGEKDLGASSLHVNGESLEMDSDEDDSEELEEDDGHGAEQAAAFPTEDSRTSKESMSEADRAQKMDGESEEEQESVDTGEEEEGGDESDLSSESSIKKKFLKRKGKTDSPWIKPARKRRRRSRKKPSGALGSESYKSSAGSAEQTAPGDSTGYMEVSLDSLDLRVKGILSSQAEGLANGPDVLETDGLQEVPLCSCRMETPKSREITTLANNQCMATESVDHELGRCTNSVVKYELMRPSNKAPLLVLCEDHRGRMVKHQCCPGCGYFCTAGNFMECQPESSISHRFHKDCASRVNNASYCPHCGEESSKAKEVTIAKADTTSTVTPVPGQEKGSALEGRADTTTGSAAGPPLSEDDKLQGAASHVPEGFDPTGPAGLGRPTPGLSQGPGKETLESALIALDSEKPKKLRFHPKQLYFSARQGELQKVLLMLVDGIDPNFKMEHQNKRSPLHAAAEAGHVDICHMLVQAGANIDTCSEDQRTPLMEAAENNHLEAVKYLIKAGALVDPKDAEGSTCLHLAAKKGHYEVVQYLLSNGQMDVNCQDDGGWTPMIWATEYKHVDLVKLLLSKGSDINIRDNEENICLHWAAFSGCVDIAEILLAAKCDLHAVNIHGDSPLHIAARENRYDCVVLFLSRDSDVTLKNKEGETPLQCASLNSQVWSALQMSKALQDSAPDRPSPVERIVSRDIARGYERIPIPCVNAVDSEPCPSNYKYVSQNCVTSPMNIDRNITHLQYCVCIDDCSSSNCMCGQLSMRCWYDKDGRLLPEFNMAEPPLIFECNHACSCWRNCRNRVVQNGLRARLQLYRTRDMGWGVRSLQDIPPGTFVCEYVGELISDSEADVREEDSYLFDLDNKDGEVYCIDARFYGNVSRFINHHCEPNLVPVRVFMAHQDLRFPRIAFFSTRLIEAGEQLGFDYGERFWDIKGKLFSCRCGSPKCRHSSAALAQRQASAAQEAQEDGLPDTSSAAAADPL

Row | Molecule | 3xMBT/D355N UNC Heavy (3×MBT domain of L3MBTL1) | 3xMBT/D355N UNC Light (3×MBT domain of L3MBTL1) | Relative to UNC0638 UNC Heavy (G9a and GLP) | Relative to UNC0638 UNC Light (G9a and GLP) | Relative to UNC0638 Average (G9a and GLP)
1 | B1 | 3.43 log base 2 | 3.97 log base 2 | 0.07 log base 2 | 0.28 log base 2 | 0.18 log base 2
2 | B2 | 2.85 log base 2 | 2.26 log base 2 | 0.63 log base 2 | −0.28 log base 2 | 0.18 log base 2
3 | B3 | 2.96 log base 2 | 3.79 log base 2 | 0.20 log base 2 | 0.16 log base 2 | 0.18 log base 2
4 | B4 | 2.60 log base 2 | 2.47 log base 2 | 0.31 log base 2 | 0.04 log base 2 | 0.18 log base 2
5 | B5 | 4.07 log base 2 | 4.56 log base 2 | 0.06 log base 2 | 0.29 log base 2 | 0.18 log base 2
6 | B6 | 1.26 log base 2 | 0.71 log base 2 | 2.48 log base 2 | −0.46 log base 2 | 1.01 log base 2
